Experimental data taken from the Human Domainome abundance scans (Beltran et al. 2025).
± gives the uncertainty stated by the source.

B1: Peroxisome proliferator-activated receptor delta, residues 71 to 145; numbered along this chain, Q03181 (parent)
chain: NMECRVCGDKASGFHYGVHACEGCKGFFRRTIRMKLEYEKCERSCKIQKKNRNKCQYCRFQKCLALGMSHNAIRF

Variants of: B1
Assay: abundance fitness (aPCA) (normalised: wild type 0, dead -1); higher = more abundant; growth selection in yeast, the domain comes from the species named
Settings: Homo sapiens

Row | Variant | abundance fitness
1 | NMECRVCGDKASGFHYGVHACEGCKGFFRRTIRMKLEYEKCERSCKIQKKNDNKCQYCRFQKCLALGMSHNAIRF [R52D] | 0.075 ± 0.065
2 | NMECRVCGDKASGFHYGVHACEGCKGFFRRTIRMKLEYEKCERSCKIQKKNWNKCQYCRFQKCLALGMSHNAIRF [R52W] | -0.286 ± 0.056
3 | NMECRVCGDKASGFHYGVHACEGCKGFFRRTIRMKLEYEKCERSCKIQKKNKNKCQYCRFQKCLALGMSHNAIRF [R52K] | 0.207 ± 0.049
4 | NMECRVCGDKASGFHYGVHACEGCKGFFRRTIRMKLEYEKCERSCKIQKKNINKCQYCRFQKCLALGMSHNAIRF [R52I] | 0.012 ± 0.087
5 | NMECRVCGDKASGFHYGVHACEGCKGFFRRTIRMKLEYEKCERSCKIQKKNNNKCQYCRFQKCLALGMSHNAIRF [R52N] | -0.084 ± 0.09
6 | NMECRVCGDKASGFHYGVHACEGCKGFFRRTIRMKLEYEKCERSCKIQKKNFNKCQYCRFQKCLALGMSHNAIRF [R52F] | -0.155 ± 0.12
7 | NMECRVCGDKASGFHYGVHACEGCKGFFRRTIRMKLEYEKCERSCKIQKKNQNKCQYCRFQKCLALGMSHNAIRF [R52Q] | -0.03 ± 0.052
8 | NMECRVCGDKASGFHYGVHACEGCKGFFRRTIRMKLEYEKCERSCKIQKKNENKCQYCRFQKCLALGMSHNAIRF [R52E] | -0.037 ± 0.042
9 | NMECRVCGDKASGFHYGVHACEGCKGFFRRTIRMKLEYEKCERSCKIQKKNSNKCQYCRFQKCLALGMSHNAIRF [R52S] | -0.022 ± 0.04
10 | NMECRVCGDKASGFHYGVHACEGCKGFFRRTIRMKLEYEKCERSCKIQKKNHNKCQYCRFQKCLALGMSHNAIRF [R52H] | -0.307 ± 0.11
11 | NMECRVCGDKASGFHYGVHACEGCKGFFRRTIRMKLEYEKCERSCKIQKKNVNKCQYCRFQKCLALGMSHNAIRF [R52V] | 0.07 ± 0.038
12 | NMECRVCGDKASGFHYGVHACEGCKGFFRRTIRMKLEYEKCERSCKIQKKNLNKCQYCRFQKCLALGMSHNAIRF [R52L] | -0.087 ± 0.042
13 | NMECRVCGDKASGFHYGVHACEGCKGFFRRTIRMKLEYEKCERSCKIQKKNTNKCQYCRFQKCLALGMSHNAIRF [R52T] | -0.012 ± 0.047
14 | NMECRVCGDKASGFHYGVHACEGCKGFFRRTIRMKLEYEKCERSCKIQKKNCNKCQYCRFQKCLALGMSHNAIRF [R52C] | -0.241 ± 0.076
15 | NMECRVCGDKASGFHYGVHACEGCKGFFRRTIRMKLEYEKCERSCKIQKKNPNKCQYCRFQKCLALGMSHNAIRF [R52P] | 0.128 ± 0.045
16 | NMECRVCGDKASGFHYGVHACEGCKGFFRRTIRMKLEYEKCERSCKIQKKNMNKCQYCRFQKCLALGMSHNAIRF [R52M] | -0.078 ± 0.056
17 | NMECRVCGDKASGFHYGVHACEGCKGFFRRTIRMKLEYEKCERSCKIQKKNYNKCQYCRFQKCLALGMSHNAIRF [R52Y] | 0.012 ± 0.14
18 | NMECRVCGDKASGFHYGVHACEGCKGFFRRTIRMKLEYEKCERSCKIQKKNRWKCQYCRFQKCLALGMSHNAIRF [N53W] | -0.127 ± 0.048
19 | NMECRVCGDKASGFHYGVHACEGCKGFFRRTIRMKLEYEKCERSCKIQKKNRLKCQYCRFQKCLALGMSHNAIRF [N53L] | -0.217 ± 0.044

Row | Variant | abundance fitness
20 | NMECRVCGDKASGFHYGVHACEGCKGFFRRTIRMKLEYEKCERSCKIQKKNRFKCQYCRFQKCLALGMSHNAIRF [N53F] | -0.083 ± 0.092
21 | NMECRVCGDKASGFHYGVHACEGCKGFFRRTIRMKLEYEKCERSCKIQKKNRDKCQYCRFQKCLALGMSHNAIRF [N53D] | -0.08 ± 0.067
22 | NMECRVCGDKASGFHYGVHACEGCKGFFRRTIRMKLEYEKCERSCKIQKKNRMKCQYCRFQKCLALGMSHNAIRF [N53M] | -0.067 ± 0.052
23 | NMECRVCGDKASGFHYGVHACEGCKGFFRRTIRMKLEYEKCERSCKIQKKNRHKCQYCRFQKCLALGMSHNAIRF [N53H] | -0.152 ± 0.099
24 | NMECRVCGDKASGFHYGVHACEGCKGFFRRTIRMKLEYEKCERSCKIQKKNRRKCQYCRFQKCLALGMSHNAIRF [N53R] | -0.185 ± 0.037
25 | NMECRVCGDKASGFHYGVHACEGCKGFFRRTIRMKLEYEKCERSCKIQKKNRCKCQYCRFQKCLALGMSHNAIRF [N53C] | -0.274 ± 0.11
26 | NMECRVCGDKASGFHYGVHACEGCKGFFRRTIRMKLEYEKCERSCKIQKKNRPKCQYCRFQKCLALGMSHNAIRF [N53P] | -0.468 ± 0.087
27 | NMECRVCGDKASGFHYGVHACEGCKGFFRRTIRMKLEYEKCERSCKIQKKNRQKCQYCRFQKCLALGMSHNAIRF [N53Q] | -0.152 ± 0.064
28 | NMECRVCGDKASGFHYGVHACEGCKGFFRRTIRMKLEYEKCERSCKIQKKNRKKCQYCRFQKCLALGMSHNAIRF [N53K] | -0.104 ± 0.069
29 | NMECRVCGDKASGFHYGVHACEGCKGFFRRTIRMKLEYEKCERSCKIQKKNRIKCQYCRFQKCLALGMSHNAIRF [N53I] | -0.051 ± 0.074
30 | NMECRVCGDKASGFHYGVHACEGCKGFFRRTIRMKLEYEKCERSCKIQKKNRAKCQYCRFQKCLALGMSHNAIRF [N53A] | -0.086 ± 0.041
31 | NMECRVCGDKASGFHYGVHACEGCKGFFRRTIRMKLEYEKCERSCKIQKKNREKCQYCRFQKCLALGMSHNAIRF [N53E] | 0.123 ± 0.042
32 | NMECRVCGDKASGFHYGVHACEGCKGFFRRTIRMKLEYEKCERSCKIQKKNRGKCQYCRFQKCLALGMSHNAIRF [N53G] | -0.033 ± 0.035
33 | NMECRVCGDKASGFHYGVHACEGCKGFFRRTIRMKLEYEKCERSCKIQKKNRSKCQYCRFQKCLALGMSHNAIRF [N53S] | -0.005 ± 0.042
34 | NMECRVCGDKASGFHYGVHACEGCKGFFRRTIRMKLEYEKCERSCKIQKKNRTKCQYCRFQKCLALGMSHNAIRF [N53T] | -0.112 ± 0.051
35 | NMECRVCGDKASGFHYGVHACEGCKGFFRRTIRMKLEYEKCERSCKIQKKNRYKCQYCRFQKCLALGMSHNAIRF [N53Y] | -0.249 ± 0.098
36 | NMECRVCGDKASGFHYGVHACEGCKGFFRRTIRMKLEYEKCERSCKIQKKYRNKCQYCRFQKCLALGMSHNAIRF [N51Y] | -0.363 ± 0.15
37 | NMECRVCGDKASGFHYGVHACEGCKGFFRRTIRMKLEYEKCERSCKIQKKWRNKCQYCRFQKCLALGMSHNAIRF [N51W] | -0.408 ± 0.071
